Results as given in patent US20030219441A1.

Key:
[1] = biological target: Recombinant human truncated Tissue Factor (tTF) (human) (UniProt P13726); experiment: cell-based or functional assay
[2] = biological target: I-A^d MHC Class II antigen on A20 cells (mouse) (UniProt P04228); experiment: 125I-labelled Fab' binding to A20 cells
[3] = biological target: I-A^d MHC Class II antigen on A20 cells (mouse) (UniProt P04228); experiment: method not given
[4] = biological target: Recombinant human truncated Tissue Factor (tTF) (human) (UniProt P13726); experiment: 125I-tTF (in molar excess) tethered to A20 cells (I-A^d) through the bispecific antibody, at saturation

UniProt P13726, sequence (P13726 33-251): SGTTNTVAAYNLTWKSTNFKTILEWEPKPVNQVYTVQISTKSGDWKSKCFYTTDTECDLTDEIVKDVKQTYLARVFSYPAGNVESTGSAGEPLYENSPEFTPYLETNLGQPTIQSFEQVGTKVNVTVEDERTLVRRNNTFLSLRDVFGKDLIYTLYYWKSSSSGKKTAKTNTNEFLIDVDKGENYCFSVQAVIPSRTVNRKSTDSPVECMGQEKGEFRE
UniProt P04228, sequence (P04228 24-256, chain 1 of 2): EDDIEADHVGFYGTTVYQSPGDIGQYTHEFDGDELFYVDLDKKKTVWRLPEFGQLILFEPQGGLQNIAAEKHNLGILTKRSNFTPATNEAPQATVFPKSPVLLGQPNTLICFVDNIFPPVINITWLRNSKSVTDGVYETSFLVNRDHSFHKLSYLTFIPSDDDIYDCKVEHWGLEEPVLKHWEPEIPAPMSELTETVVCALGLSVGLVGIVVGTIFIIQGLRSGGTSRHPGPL
UniProt P04228, sequence (P01921 28-265, chain 2 of 2, further chain): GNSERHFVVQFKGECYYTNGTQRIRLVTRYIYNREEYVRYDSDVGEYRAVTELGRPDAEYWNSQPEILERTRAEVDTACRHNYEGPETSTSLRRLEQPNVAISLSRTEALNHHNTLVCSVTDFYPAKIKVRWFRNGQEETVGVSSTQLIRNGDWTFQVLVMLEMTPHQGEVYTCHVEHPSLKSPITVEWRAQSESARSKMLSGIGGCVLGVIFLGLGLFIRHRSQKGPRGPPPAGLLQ

Coagulation time (sec) of mouse plasma added to A20 cells incubated with the reagents [1]	coagulation time of mouse plasma, A20 cells incubated with 21.5 nM bispecific antibody and 69 nM tTF [1]	Substance	also measured
168 s		B21-2 F(ab')2	
165 s		B21-2 Fab′	concentration at which saturation of binding is reached [2]: 21.5 nM
36 s	60 s	B21-2/10H10 bispecific antibody	molecules of tTF bound per A20 cell (molecules per cell) [4]: 310000
154 s	140 s	SFR8/10H10 bispecific antibody	

The remaining lines, values behind:

Substance	Coagulation time (sec) of mouse plasma added to A20 cells incubated with the reagents [1]	coagulation time of mouse plasma, A20 cells incubated with 21.5 nM bispecific antibody and 69 nM tTF [1]	also measured
10H10 F(ab')2	160 s		
10H10 Fab'	162 s		
B21-2 antibody			fold better affinity than M5/114 [3]: 10 fold
B21-2/OX7 bispecific antibody	165 s	140 s	
